These results are taken from patent US20060292157A1 (TRUSTEES OF COLUMBIA UNIVERSITY IN THE CITY OF NEW YORK, published 2006).

The target in this test is T1, BiP/GRP78 (endogenous) (human (endogenous in human HeLa cells), UniProt P11021 19-654).
T1 construct: Immunoprecipitated from cell lysates with BiP/GRP78 antibodies; also called ER chaperone BiP/GRP78
As to the kind of experiment: co-IP with BiP/GRP78 antibodies, blot with Flag antibodies; wild type against C/F mutants; HeLa and P69 cells. The source says:
These mutants were used to examine whether disruption of these regions altered interaction with BiP/GRP78 in HeLa (FIG. 11E) and P69 cells. BiP/GRP78 was immunoprecipitated using BiP/GRP78 antibodies and the membrane was probed with Flag antibodies (FIG. 11E). The C/F helix mutants of MDA-7/1IL-24 and M4 lost their ability to bind to BiP/GRP78 (FIG. 11E).
Cells were infected with Ad.vec, Ad.M4 or Ad.mda-7 or transfected with various plasmid (Flag tagged MDA7 or M4 and Myc tagged BiP) constructs in a 100-mm dish and after 48 h cells were rinsed with ice-cold phosphate buffered saline (PBS). Cells were lysed in 1 ml of immunoprecipitation buffer containing 25 mM Tris-Cl pH8.0, 137 mM NaCl, 2.5 mM KCl, 1% Triton X-100 and protease inhibitor mix. Cells were scrapped from the plates, transferred into microfuge tubes and rotated at 4° C. for 30 minutes. Tubes were centrifuged for 10 min at 13,000 rpm and 10 μl of supernatant were incubated with 50% Protein A agarose and rotated at 4° C. for 1 h to eliminate non-specific interactions. Samples were centrifuged and mixed with anti BiP/Grp78 or 9E10 myc monoclonal antibodies (1:200) dilution and rotated overnight at 4° C. Immune-complexes were precipitated with 25 μl of 50% protein A agarose for 2 h. […]

T1 sequence (P11021 19-654 limits assumed): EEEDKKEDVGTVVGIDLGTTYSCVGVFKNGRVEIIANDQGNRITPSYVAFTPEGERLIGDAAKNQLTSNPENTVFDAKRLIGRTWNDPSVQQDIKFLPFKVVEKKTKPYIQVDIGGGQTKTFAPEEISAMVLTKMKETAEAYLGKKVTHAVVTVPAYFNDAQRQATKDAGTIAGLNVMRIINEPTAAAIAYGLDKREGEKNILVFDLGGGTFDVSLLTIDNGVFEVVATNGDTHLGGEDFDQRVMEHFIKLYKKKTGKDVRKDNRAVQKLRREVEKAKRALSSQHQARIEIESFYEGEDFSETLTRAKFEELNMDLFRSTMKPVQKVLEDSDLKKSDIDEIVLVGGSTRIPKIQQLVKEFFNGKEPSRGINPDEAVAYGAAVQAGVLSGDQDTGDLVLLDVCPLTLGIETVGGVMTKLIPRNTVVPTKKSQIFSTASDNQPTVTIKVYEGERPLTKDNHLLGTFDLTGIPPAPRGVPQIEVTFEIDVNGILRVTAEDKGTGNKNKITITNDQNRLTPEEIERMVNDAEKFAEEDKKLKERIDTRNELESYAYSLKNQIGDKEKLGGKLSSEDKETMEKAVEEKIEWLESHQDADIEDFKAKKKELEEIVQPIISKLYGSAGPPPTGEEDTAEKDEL

B1: Flag-tagged M4 (amino acids 104-206 of MDA-7/IL-24, pCMV3xFlag) (other)
chain: ESCYLVHTLLEFYLKTVFKNYHNRTVEVRTLKSFSTLANNFVLIVSQLQPSQENEMFSIRDSAHRRFLLFRRAFKQLDVEAALTKALGEVDILLTWMQKFYKL
notes: Transiently expressed in HeLa cells; also called Flag M4; not shown: three Flag tags at the N-terminus from vector pCMV3xFlag (Sigma)
With B1, the binding result is “binds”.
